This note sets out measurements from patent US20200392228A1 (PANDION OPERATIONS, published 2020).

First the molecules themselves.
T1: mouse MAdCAM expressed on cells (mouse, UniProt Q61826 22-405)
T1 construct: whole, on cells
T1 sequence (looked up): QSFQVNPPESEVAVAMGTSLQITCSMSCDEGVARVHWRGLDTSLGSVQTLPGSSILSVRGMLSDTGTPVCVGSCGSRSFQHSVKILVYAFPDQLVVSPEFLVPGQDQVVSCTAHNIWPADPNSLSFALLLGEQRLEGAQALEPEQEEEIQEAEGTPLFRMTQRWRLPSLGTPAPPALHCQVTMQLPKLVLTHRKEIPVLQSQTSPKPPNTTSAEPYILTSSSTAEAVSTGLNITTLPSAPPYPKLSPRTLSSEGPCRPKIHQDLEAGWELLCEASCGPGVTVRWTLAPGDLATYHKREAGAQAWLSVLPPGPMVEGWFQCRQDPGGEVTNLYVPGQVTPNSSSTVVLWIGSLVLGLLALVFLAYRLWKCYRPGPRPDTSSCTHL

T2: human MAdCAM expressed on cells (human, UniProt Q13477 19-382)
T2 construct: whole, on cells; also called MADCAM1
T2 sequence (looked up): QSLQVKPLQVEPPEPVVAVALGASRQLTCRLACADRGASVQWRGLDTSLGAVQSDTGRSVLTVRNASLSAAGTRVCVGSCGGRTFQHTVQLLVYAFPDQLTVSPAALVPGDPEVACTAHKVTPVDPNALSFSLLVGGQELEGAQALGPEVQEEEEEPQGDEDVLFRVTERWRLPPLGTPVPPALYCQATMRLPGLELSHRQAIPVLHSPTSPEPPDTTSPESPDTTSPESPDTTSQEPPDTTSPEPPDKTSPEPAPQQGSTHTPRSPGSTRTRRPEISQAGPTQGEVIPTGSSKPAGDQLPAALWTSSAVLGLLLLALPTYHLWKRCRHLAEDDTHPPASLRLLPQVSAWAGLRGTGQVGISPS

B1: MAdCAM antibody Clone ID 26 of Table 7 (IgG) (antibody, V domains shown)
VH: EVQLLESGGGLVQPGGSLRLSCAASGFTFSSYAMSWVRQAPGKGLEWVSYISSSSTYTNYADSVKGRFTISRDNSKNTLYLQMNSLRAEDTAVYYCARANSSSWYDWYFDLWGQGTLVTVSS
VL: not shown
notes: IgG format
B2: MAdCAM antibody Clone ID 27 of Table 7 (IgG) (antibody, V domains shown)
VH: B1 VH with A33Q
VL: not shown
notes: IgG format
B3: MAdCAM antibody Clone ID 9 of Table 7 (IgG) (antibody, V domains shown)
VH: QVQLVQSGAEVKKPGASVKVSCKASGYTFTSYYMHWVRQAPGQGLEWMGIINHSGGSTSYAQKFQGRVTMTRDTSTSTVYMELSSLRSEDTAVYYCARPYSGWYFAFDIWGQGTLVTVSS
VL: not shown
notes: IgG format
B4: MAdCAM antibody Clone ID 72 of Table 7 (IgG) (antibody, V domains shown)
VH: QVQLVQSGAEVKKPGASVKVSCKASGYTFTSYYMHWVRQAPGQGLEWMGVINPIGGTTTYAQKFQGRVTMTRDTSTSTVYMELSSLRSEDTAVYYCASGAPSYYYYGMDVWGQGTLVTVSS
VL: DIQMTQSPSSLSASVGDRVTITCRASQSISSYLNWYQQKPGKAPKLLIYGTSYLATGVPSRFSGSGSGTDFTLTISSLQPEDFATYYCQQSYSTPLTFGQGTKVEIK
notes: IgG format
B5: MAdCAM antibody Clone ID 73 of Table 7 (IgG) (antibody, V domains shown)
VH: QVQLVQSGAEVKKPGASVKVSCKASGYTFTSNYVHWVRQAPGQGLEWMGRINPHSGDTSYAQKFQGRVTMTRDTSTSTVYMELSSLRSEDTAVYYCARAGQLWSDWYFDLWGRGTLVTVSS
VL: B4 VL with R24Q, S28D, S30R, S31N, G50A, T51A, S52T, Y53A, A55R, T94H
notes: IgG format
B6: MAdCAM antibody Clone ID 80 of Table 7 (IgG) (antibody, V domains shown)
VH: EVQLLESGGGLVQPGGSLRLSCAASGFTFDDYAMHWVRQAPGKGLEWVSAISGSGGSTYYADSVKGRFTISRDNSKNTLYLQMNSLRAEDTAVYYCAKDLGVVVPAALDYWGQGTTVTVSS
VL: B4 VL with R24Q, S28D, S31N, Y32H, G50D, T51A, Y53N, A55E, T56A, Q100G
notes: IgG format
B7: MAdCAM antibody Clone ID 40 of Table 6 (scFv) (scFv)
scFv: QVQLVQSGAEVKKPGASVKVSCKASGYTFTSYGISWVRQAPGQGLEWMGIINPRGGSTIFAQKFQGRVTMTRDTSTSTVYMELSSLRSEDTAVYYCARGTRSSGWYGWFDPWGQGTLVTVSSGGGGSGGGGSGGGGSGGGGSDIQMTQSPSSLSASVGDRVTITCRASQGIGNWLAWYQQKPGKAPKLLIYAASNLETGVPSRFSGSGSGTDFTLTISSLQPEDFATYYCQQIHSYPLTFGGGTKVEIK
B8: MAdCAM antibody Clone ID 25 of Table 6 (scFv) (scFv)
scFv: QVQLVQSGAEVKKPGASVKVSCKASGYTLTTWYMYWVRQAPGQGLEWMGWINPNRGATNYAQKFQGRVTMTRDTSTSTVYMELSSLRSEDTAVYYCAKGDLWGAMDVWGQGTLVTVSSGGGGSGGGGSGGGGSGGGGSDIQMTQSPSSLSASVGDRVTITCRASDNIGSWLAWYQQKPGKAPKLLIYAASSLQSGVPSRFSGSGSGTDFTLTISSLQPEDFATYYCQQGYSTPPTFGQGTKVEIK
B9: MAdCAM antibody Clone ID 30 of Table 6 (scFv) (scFv)
scFv: B8 scFv
B10: MAdCAM antibody Clone ID 47 of Table 6 (scFv) (scFv)
scFv: EVQLLESGGGLVQPGGSLRLSCAASGFSFSDYGMHWVRQAPGKGLEWVSAISGSGGSTYYADSVKGRFTISRDNSKNTLYLQMNSLRAEDTAVYYCARDGGWQPAAILDYWGQGTLVTVSSGGGGSGGGGSGGGGSGGGGSDIQMTQSPSSLSASVGDRVTITCRASQGISNNLNWYQQKPGKAPKLLIYDASNLETGVPSRFSGSGSGTDFTLTISSLQPEDFATYYCQQSYSTPLTFGGGTKVEIK
B11: MAdCAM antibody Clone ID 12 of Table 6 (scFv) (scFv)
scFv: QVQLVQSGAEVKKPGASVKVSCKASGYTFTGYYMHWVRQAPGQGLEWMGWIGPNSGDTNYAQKFQGRVTMTRDTSTSTVYMELSSLRSEDTAVYYCARDLDHNWYFDLWGRGTLVTVSSGGGGSGGGGSGGGGSGGGGSDIVMTQSPLSLPVTPGEPASISCRSSQSLLHSNGYNYLDWYLQKPGQSPQLLIYSSSNRAPGVPDRFSGSGSGTDFTLKISRVEAEDVGVYYCMQALHIPLTFGGGTKVEIK
B12: MAdCAM antibody Clone ID 48 of Table 6 (scFv) (scFv)
scFv: EVQLLESGGGLVQPGGSLRLSCAASGFTFSDHGMHWVRQAPGKGLEWVSVIYGGESTYYADSVKGRFTISRDNSKNTLYLQMNSLRAEDTAVYYCARDPAVAGGGIFDYWGQGTLVTVSSGGGGSGGGGSGGGGSGGGGSDIQMTQSPSSLSASVGDRVTITCRASQGISNYLAWYQQKPGKAPKLLIYDASNLETGVPSRFSGSGSGTDFTLTISSLQPEDFATYYCQQSYSTCYTFGQGTKLEIK
B13: MAdCAM antibody Clone ID 45 of Table 6 (scFv) (scFv)
scFv: EVQLLESGGGLVQPGGSLRLSCAASGFSVSSNYMSWVRQAPGKGLEWVAGISYDGSSKPYADSVKGRFTISRDNSKNTLYLQMNSLRAEDTAVYYCARSRGIAARPLQHWGQGTLVTVSSGGGGSGGGGSGGGGSGGGGSDIVMTQSPDSLAVSLGERATINCKSSQSVLYSSNNKNYLAWYQQKPGQPPKLLIYWASTRQSGVPDRFSGSGSGTDFTLTISSLQAEDVAVYYCHQYYGHPPTFGGGTKVEIK
B14: MAdCAM antibody Clone ID 46 of Table 6 (scFv) (scFv)
scFv: B13 scFv with W196Q
B15: MAdCAM antibody Clone ID 43 of Table 6 (scFv) (scFv)
scFv: EVQLLESGGGLVQPGGSLRLSCAASGFTFDDFAMHWVRQAPGKGLEWVSGISGNGDSRYYADSVKGRFTISRDNSKNTLYLQMNSLRAEDTAVYYCARDASYGGNYGMDVWGQGTTVTVSSGGGGSGGGGSGGGGSGGGGSDIQMTQSPSSLSASVGDRVTITCQASQDIRNYLNWYQQKPGKAPKLLIYKASTLESGVPSRFSGSGSGTDFTLTISSLQPEDFATYYCQQANSFPLTFGPGTKVDIK
B16: MAdCAM antibody Clone ID 56 of Table 6 (scFv) (scFv)
scFv: EVQLLESGGGLVQPGGSLRLSCAASGFTFDDYAMHWVRQAPGKGLEWVSAISGGGEDTYYADSVKGRFTISRDNSKNTLYLQMNSLRAEDTAVYYCARDASYGGNYGMDVWGQGTTVTVSSGGGGSGGGGSGGGGSGGGGSDIQMTQSPSSLSASVGDRVTITCQASQDIRNYLNWYQQKPGKAPKLLIYKASSLESGVPSRFSGSGSGTDFTLTISSLQPEDFATYYCQQANSYPVTFGGGTKVEIK
B17: MAdCAM antibody Clone ID 3 of Table 6 (scFv) (scFv)
scFv: QVQLVQSGAEVKKPGASVKVSCKASGYPFIGQYLHWVRQAPGQGLEWMGIINPSGGSTSYAQKFQGRVTMTRDTSTSTVYMELSSLRSEDTAVYYCAREGRLSYGMDAWGQGTLVTVSSGGGGSGGGGSGGGGSGGGGSDIQMTQSPSSLSASVGDRVTITCRASQSISSYLAWYQQKPGKAPKLLIYGASTLESGVPSRFSGSGSGTDFTLTISSLQPEDFATYYCQQTWGPPFTFGQGTKLEIK
B18: MAdCAM antibody Clone ID 42 of Table 6 (scFv) (scFv)
scFv: QVQLVQSGAEVKKPGSSVKVSCKASGGTLSRYGVSWVRQAPGQGLEWMGGIIPIFGTTNYAQKFQGRVTITADESTSTAYMELSSLRSEDTAVYYCARDRVYYDSSGYPTWYFDLWGRGTLVTVSSGGGGSGGGGSGGGGSGGGGSEIVMTQSPATLSVSPGERATLSCRASQSVSSSYLAWYQQKPGQAPRLLIYGASTRATGIPARFSGSGSGTEFTLTISSLQSEDFAVYYCQQYGSSPITFGQGTKVEIK
B19: MAdCAM antibody Clone ID 44 of Table 6 (scFv) (scFv)
scFv: EVQLVESGGGLVKPGGSLRLSCAASGFTFSSYWMSWVRQAPGKGLEWVSAIGTGGGTYYAAPVKGRFTISRDDSKNTLYLQMNSLKTEDTAVYYCAREWLVPYYGMDVWGQGTTVTVSSGGGGSGGGGSGGGGSGGGGSDIQMTQSPSSLSASVGDRVTITCRASQSISRWLAWYQQKPGKAPKLLIYGASNLQSGVPSRFSGSGSGTDFTLTISSLQPEDFATYYCQQSYSTPWTFGQGTKVEIK

Numbering of substitutions follows the chain as printed.

For one test, the target named is T1, mouse MAdCAM expressed on cells. Briefly: cell binding.
B1: the binding result is recorded as “no binding”.

Consider B2, for which the binding result was “no binding”.

In the case of B3, the binding result is recorded as “no binding”.

B4: the binding result is reported as “no binding”.

As to B5, the binding result is reported as “no binding”.

As for B6, the binding result was “no binding”.

For a further test the target is unchanged. Nature of the test: cell binding. This is another data set of the same source.
For B7, the binding result is reported as “no binding”.

B8: the binding result is recorded as “no binding”.

On to B9, for which the binding result is listed as “no binding”.

On to B10, for which the binding result was “no binding”.

In the case of B11, the binding result was “no binding”.

As to B12, the binding result is given as “no binding”.

B13: the binding result is listed as “no binding”.

As for B14, the binding result is listed as “no binding”.

In the case of B15, the binding result was “no binding”.

On to B16, for which the binding result was “no binding”.

Turning to B17, the binding result was “binds”.

B18: the binding result is reported as “no binding”.

For the molecule B19, the binding result is on record as “no binding”.

A further test has as its target T2, human MAdCAM expressed on cells. Nature of the test: cell binding.
For B7, the binding result is “binds”.

As for B12, the binding result is “binds”.

On to B13, for which the binding result was “binds”.

As for B14, the binding result is reported as “binds”.

As to B15, the binding result is reported as “binds”.

As to B17, the binding result is reported as “binds”.

On to B18, for which the binding result is reported as “binds”.

With B19, the binding result is reported as “binds”.
